In patent US20250019450A1 (DIAGONAL THERAPEUTICS, published 2025):

Legend:
[1] = target: T1, human IL-12RB1 overexpressed on 293T cells (Example 2) (human, UniProt P42701 24-662); assay: FACS, hybridoma supernatant, 293T
T1 construct: whole, on cells

[2] = target: T2, cyno IL-12RB1 overexpressed on 293T cells (Example 2) (cyno, UniProt A0A2K5VWV1 24-662); assay: FACS, hybridoma supernatant, 293T
T2 construct: whole, on cells

[3] = target: T3, IL-12 receptor endogenously expressed on THP-1 cells (UniProt P42701 24-662; Q99665 24-862); assay: FACS, hybridoma supernatant, THP-1
T3 construct: whole, on cells

B1: 85801_02011 (antibody, V domains shown)
VH: EVQLVESGGGLVQPGGSLRLSCAASGFTFSSYDMNWVRQAPGKGLEWISYINSRSSTIYYADSVKGRFTISRDNAKNSLYLQMNSLRDEDTALYYCAREIEDSMDVWGQGTTVTVSS
VL: QSVLTQPPSVSAAPGQKVTISCSGSSSNIGNNYVSWYQQLPGTAPKLLIYDNNERPSGIPDRFSGSKSGTSATLGITGLQPGDEADYYCGTWDSSLSAGVFGGGTKLTVL
notes: also called 85801_02O11A
Fold over parental 293T [1]: 114 fold | Fold over parental 293T [2]: 56 fold | Fold over buffer [3]: 35 fold

B2: 85801_04M12 (antibody, V domains shown)
VH: QVQLVESGGGVVQPGRSLRLSCAASGFTFSSHGMHWVRQAPGKGLEWVAIIWYAGNKKYYADSVKGRFTISRDNSKNTLYLQMNSLRAEDTAVYYCARESLLNSASDIWGQGTMVTVSS
VL: QSVLTQPPSVSAAPGQTVTISCSGSSSNIGNNYVSWYQQLPGTAPKLLIYDNNKRPSGIPDRFSGSKSGTSATLGITGLQTGDEADYYCGTWDSSLSAVVFGGGTKLTVL
notes: also called 85801_04M12A
Fold over parental 293T [1]: 192 fold | Fold over parental 293T [2]: 71 fold | Fold over buffer [3]: 45 fold

B3: 85801_03P23 (antibody, V domains shown)
VH: EVQLVESGGGLVQPGGSLRLSCAASGFTFSSYWMSWVRQAPGKGLEWVANIKQDGSEKYYVDSVKGRFTISRDNAKNSLYLQMNSLRAEDTAVYYCARGSIAAPFDYWGQGTLVTVSS
VL: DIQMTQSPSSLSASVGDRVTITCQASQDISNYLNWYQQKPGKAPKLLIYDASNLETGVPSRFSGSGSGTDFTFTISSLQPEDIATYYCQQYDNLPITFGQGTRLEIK
notes: also called 85801_03P23A
Fold over parental 293T [1]: 69 fold | Fold over parental 293T [2]: 23 fold | Fold over buffer [3]: 39 fold

B4: 85801_04M04 (antibody, V domains shown)
VH: QVQLVQSGAEVKKPGASVRVSCKASGYTFTSYYIHWVRQAPGQGLEWMGIINPSGGSTSYAQKFQGRVTMTRDTSTTTVYMELSSLRSEDTAVYYCAKSNWAYAFDIWGQGTMVTVSS
VL: SSELTQDPAVSVALGQTVRITCQGDSLSSYYAGWYQQKPGQAPVLVIYGKNNRPSGIPDRFSGSSSEDTASLTITGAQAEDEADYYCNSRDSSDNHLVFGGGTKLTVL
notes: also called 85801_04M04A
Fold over parental 293T [1]: 620 fold | Fold over parental 293T [2]: 195 fold | Fold over buffer [3]: 12 fold

B5: 85801_04D10 (antibody, V domains shown)
VH: EVQLLESGGGLVQPGGSLRLSCAASGFTFSSYAMSWVRQAPGKGLEWVAGISGSGGGIYYADSVKGRFTISRDNSKNTLYLQLNSLRADDTAVYYCARRLIGYWYFDLWGRGTLVPVSS
VL: DIQMTQSPSSLSASVGDRVTITCRASQGISNYLAWFQQKPGKAPKSLIYAASSLQSGVPSKFSGSGSGTDFTLTISSLQPEDFATYYCQQYNSYPPTFGGGTKVEIK
notes: also called 85801_04D10A
Fold over parental 293T [1]: 76 fold | Fold over parental 293T [2]: 20 fold | Fold over buffer [3]: 42 fold

B6: 85801_05G01 (antibody, V domains shown)
VH: QVQLVQSGAEVKKPGASAKVSCKASGYTFTDYYLHWVRQAPGQGLEWMGWINPNNGGTHYAQKFQGRVTMTRDTSISTAYMELSRLRSDDTAVYYCAREMGGTTAFDYWGQGTLVTVSS
VL: DIQMTQSPSSLSASVGDRVTITCRASQGIGNYLAWFQQRPGKAPKSLIYAASSLQSGVPSKFSGSGSGTDFTLTISSLQPADFAIYYCQQYNIYPYTFGPGTRLEIK
notes: also called 85801_05G01A
Fold over parental 293T [1]: 170 fold | Fold over parental 293T [2]: 73 fold | Fold over buffer [3]: 7 fold

B7: 85801_01M07 (antibody, V domains shown)
VH: QVQLVQSGAEVKKPGASVKVSCKASEYTFTDDYMHWVRQAPGQGLVWMGWINPNSGGTNYAQKFQGRVTMTRDTSISTAYMELSRLRSDDTAVYYCARGGLNWGWDWFDPWGQGTLVTVSS
VL: EIVLTQSPGTLSLSPGERATLSCRASQNINNNYLAWYQRKPGQAPRLLIYGASSRATGIPDRFSGSGSGTDFTLTISRLEPEDFAMYYCQQYGSSLTFGGGTKVEIK
notes: also called 85801_01M07A
Fold over parental 293T [1]: 91 fold | Fold over parental 293T [2]: 28 fold | Fold over buffer [3]: 7 fold

B8: 85801_05F05 (antibody, V domains shown)
VH: QVQLQQWGAGLLKPSETLSLTCAVYGGSFSGYYWNWIRQPPGKGLEWIGEINHSGSTHYNPSLKSRVTISVDTSKNQFSLKLSSVTAADTALYYCARALTGYFDYWGQGTLVTVSS
VL: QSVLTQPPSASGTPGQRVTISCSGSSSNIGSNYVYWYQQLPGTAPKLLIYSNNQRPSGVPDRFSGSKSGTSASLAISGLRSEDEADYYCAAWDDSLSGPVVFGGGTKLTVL
notes: also called 85801_05F05A
Fold over parental 293T [1]: 311 fold | Fold over parental 293T [2]: 118 fold | Fold over buffer [3]: 56 fold

B9: 85801_01002 (antibody, V domains shown)
VH: QVQLVQSGAEVRKPGASVKVSCKASGYTFTDYYMHWVRQAPGQGLEWMGWINPDNGGANYAQRFLGRVTMTRDTSISTAYMELSRLRSDDTAVYYCAREGSGSPYAFDLWGLGTVVTVSS
VL: DIQLTQSPSFLSASVGDRVTITCRASQGISSYLAWYQQKPGKAPKLLIYAASTLQSGVPSRFSGSGSGTEFTLTISSLQPEDFATYCCQQLNRYPFTFGQGTKLEIK
notes: also called 85801_01O02A
Fold over parental 293T [1]: 107 fold | Fold over parental 293T [2]: 13 fold | Fold over buffer [3]: 38 fold

B10: 85801_02K24 (antibody, V domains shown)
VH: QVQLQESGPGLVKPSETLSLTCTVSGGSISSYDWSWIRQSAGKGLEWIGRIYTSGSTIYNPSLKSRVTMSVDTSKNEISLKLSSVTAADTAFYYCAKDRGNYPHDAFDIWGQGTMITVSS
VL: DIQLTQSPSFLSASVGDRVTITCRASQGISSFLAWYQQKPGKAPKLLIYAASTLQSGVPSRFSGSGSGTEFTLTISSLQPEDFATYYCQQLNGYPFTFGPGTKVDIK
notes: also called 85801_02K24A
Fold over parental 293T [1]: 130 fold | Fold over parental 293T [2]: 53 fold | Fold over buffer [3]: 33 fold

B11: 85801_04D14 (antibody, V domains shown)
VH: QVHLVQSGAEVKKPGASVKVSCKASGYTFIDYYMHWVRQAPGQGLEWMGWINPNSGGTHYSQKFQGRVTMTWDTSISTAYMELSRLTSDDTAVYYCAREGDYISSSAFDYWGQGTLVTVSS
VL: DIQLTQSPSFLSASVGDRVTITCRASQGISSYLAWYQQKPGKAPKVLIYAASTLQSGVPSRFSGSGSGTEFTLTISSLLPEDFATYFCQQLHRYPYTFGQGAKLEIK
notes: also called 85801_04D14A
Fold over parental 293T [1]: 202 fold | Fold over parental 293T [2]: 44 fold | Fold over buffer [3]: 17 fold

B12: 85801_02N03 (antibody, V domains shown)
VH: QVHLVQSGAEVKKPGASVKVSCEASGYTFTDYYIHWLRQAPGQGLEWMGWINPNSGGTHYAQKFQGRVTMTRDTSISTAYMELSRLSSDDTAVYYCAREGGWNYFSGMDVWGQGTTVTVSS
VL: DIQLTQSPSFLSASVGDRVTITCRASQGISSYLAWYQQQPGKPPKLLIYAASTLHSGVPSRFSGSGSGTEFTLTISSLQPEDFATYYCQQLNRYPYTCGQGTKLEIK
notes: also called 85801_02N03A
Fold over parental 293T [1]: 221 fold | Fold over parental 293T [2]: 85 fold | Fold over buffer [3]: 41 fold

B13: 85801_04M10 (antibody, V domains shown)
VH: QVQLQESGPGLVKPSETLSLTCTVSGGSISSYYWSWIRQPAGTGLEWIGRFYTSGSTIYNPSLESRVTMSVDTSKNQFSLKLSSVTAADTAVYYCATERDYPHDAFDIWGQGTMVTVSS
VL: DIQLTQSPSFLSASVGDRVTIPCRASQDISSFLAWYQQKPGKAPNLLIYAASTLQSGVPSRFSGSGSGTEFTLTISSLQPEDFATYYCQQLNGYPLTFGGGTKVEIK
notes: also called 85801_04M10A
Fold over parental 293T [1]: 336 fold | Fold over parental 293T [2]: 122 fold | Fold over buffer [3]: 36 fold

B14: 85801_04G23 (antibody, V domains shown)
VH: QVQLVESGGGVVQPGRSLRLSCAASGFTFSSYGMHWVRQAPGKGLEWVAVIWNDGSNKYYADSVKGRFTISRDNSKNTLYLQMNSLRAEDTAVYYCARGELFFDYWGQGTLVTVSS
VL: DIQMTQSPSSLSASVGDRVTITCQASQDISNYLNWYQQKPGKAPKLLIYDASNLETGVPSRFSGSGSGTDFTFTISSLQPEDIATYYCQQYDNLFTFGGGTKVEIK
notes: also called 85801_04G23A
Fold over parental 293T [1]: 73 fold | Fold over parental 293T [2]: 27 fold | Fold over buffer [3]: 46 fold
